According to publication PMC9482650, “Quantitative fragmentomics allow affinity mapping of interactomes” (Nature Communications, 2022):

What was measured:
Test in all cases: holdup assay
Parameters in all cases: key: below the threshold = too weak to quantify, mostly under pKd 3.1 to 4
DLG4_1, P78352 = molecular target: DLG4_1, P78352
FRMPD3, Q5JV73 = molecular target: FRMPD3, Q5JV73
GRIP1_3, Q9Y3R0 = molecular target: T1, GRIP1_3, Q9Y3R0
T1 sequence (Q9Y3R0 247-346, limits assumed, looked up): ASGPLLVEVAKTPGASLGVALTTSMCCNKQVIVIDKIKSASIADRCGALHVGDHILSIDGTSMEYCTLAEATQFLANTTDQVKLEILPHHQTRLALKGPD

GRIP2_7, Q9C0E4 = molecular target: GRIP2_7, Q9C0E4
GRIP2_7, Q9C0E4, sequence (Q9C0E4 934-1023): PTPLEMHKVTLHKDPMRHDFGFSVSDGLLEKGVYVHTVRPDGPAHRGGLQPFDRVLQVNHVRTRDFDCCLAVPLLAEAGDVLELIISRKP

HTRA3, P83110 = molecular target: T2, HTRA3, P83110
T2 sequence (P83110 354-453, limits assumed, looked up): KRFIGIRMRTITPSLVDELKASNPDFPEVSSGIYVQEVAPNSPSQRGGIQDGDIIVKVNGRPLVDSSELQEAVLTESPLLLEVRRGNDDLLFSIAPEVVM

IL16_1, Q14005 = molecular target: IL16_1, Q14005
IL16_1, Q14005, sequence (Q14005 210-306): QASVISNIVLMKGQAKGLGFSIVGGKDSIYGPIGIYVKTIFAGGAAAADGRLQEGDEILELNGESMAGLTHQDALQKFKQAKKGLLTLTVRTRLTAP

Inadl_2, Q8NI35 = molecular target: Inadl_2, Q8NI35
Inadl_2, Q8NI35, sequence (Q8NI35 238-335): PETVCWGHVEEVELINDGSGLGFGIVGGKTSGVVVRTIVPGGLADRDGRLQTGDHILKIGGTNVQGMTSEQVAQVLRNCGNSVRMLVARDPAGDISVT

Inadl_8, Q8NI35 = molecular target: Inadl_8, Q8NI35
Inadl_8, Q8NI35, sequence (Q8NI35 1425-1530): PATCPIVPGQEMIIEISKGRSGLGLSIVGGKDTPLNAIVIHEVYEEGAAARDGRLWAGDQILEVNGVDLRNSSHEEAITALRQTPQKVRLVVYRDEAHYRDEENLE

LDB3, O75112 = molecular target: LDB3, O75112
LDB3, O75112, sequence (O75112 1-94): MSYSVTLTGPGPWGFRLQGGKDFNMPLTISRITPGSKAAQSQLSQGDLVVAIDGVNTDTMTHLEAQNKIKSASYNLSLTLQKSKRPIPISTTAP

LIMK2, P53671 = molecular target: LIMK2, P53671
LIMK2, P53671, sequence (P53671 143-248): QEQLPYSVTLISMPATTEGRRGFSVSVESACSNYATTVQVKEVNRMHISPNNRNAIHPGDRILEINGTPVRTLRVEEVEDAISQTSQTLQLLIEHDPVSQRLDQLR

LIN7C, Q9NUP9 = molecular target: T3, LIN7C, Q9NUP9
T3 sequence (Q9NUP9 88-185, limits assumed, looked up): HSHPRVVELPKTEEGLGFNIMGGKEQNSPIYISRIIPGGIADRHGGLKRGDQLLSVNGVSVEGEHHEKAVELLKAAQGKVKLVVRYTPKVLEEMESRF

MAGI1_1, Q96QZ7 = molecular target: MAGI1_1, Q96QZ7
MAGI1_1, Q96QZ7, sequence (Q96QZ7 1-106): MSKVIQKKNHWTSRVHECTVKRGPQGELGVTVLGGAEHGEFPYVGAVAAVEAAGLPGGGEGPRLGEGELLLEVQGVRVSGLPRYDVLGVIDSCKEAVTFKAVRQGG

MAGI2_2, Q86UL8 = molecular target: MAGI2_2, Q86UL8
MAGI2_2, Q86UL8, sequence (Q86UL8 410-522): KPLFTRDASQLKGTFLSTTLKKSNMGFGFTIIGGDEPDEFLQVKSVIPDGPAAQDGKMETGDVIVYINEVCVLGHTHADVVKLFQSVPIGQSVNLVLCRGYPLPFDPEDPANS

MAGI2_4, Q86UL8 = molecular target: MAGI2_4, Q86UL8
MAGI2_4, Q86UL8, sequence (Q86UL8 772-865): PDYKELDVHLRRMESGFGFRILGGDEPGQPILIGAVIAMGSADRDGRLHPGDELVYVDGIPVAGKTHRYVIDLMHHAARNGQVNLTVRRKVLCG

MAGI2_6, Q86UL8 = molecular target: MAGI2_6, Q86UL8
MAGI2_6, Q86UL8, sequence (Q86UL8 1141-1229): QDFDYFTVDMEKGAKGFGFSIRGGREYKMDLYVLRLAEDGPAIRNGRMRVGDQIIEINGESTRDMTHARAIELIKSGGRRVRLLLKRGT

MAGI3_2, Q5TCQ9 = molecular target: MAGI3_2, Q5TCQ9
MAGI3_2, Q5TCQ9, sequence (Q5TCQ9 398-503): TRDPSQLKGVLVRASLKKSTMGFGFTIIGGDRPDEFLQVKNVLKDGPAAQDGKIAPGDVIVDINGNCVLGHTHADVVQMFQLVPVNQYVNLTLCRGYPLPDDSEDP

MPP6, Q9NZW5 = molecular target: T4, MPP6, Q9NZW5
T4 sequence (Q9NZW5 125-219, limits assumed, looked up): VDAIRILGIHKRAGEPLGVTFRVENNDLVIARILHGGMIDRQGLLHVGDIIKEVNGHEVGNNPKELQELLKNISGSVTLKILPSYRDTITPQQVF

MPP7, Q5T2T1 = molecular target: T5, MPP7, Q5T2T1
T5 sequence (Q5T2T1 134-230, limits assumed, looked up): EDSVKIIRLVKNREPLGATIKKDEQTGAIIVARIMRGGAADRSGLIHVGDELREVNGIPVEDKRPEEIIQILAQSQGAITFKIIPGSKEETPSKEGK

NHERF3_3, Q5T2W1 = molecular target: T6, NHERF3_3, Q5T2W1
T6 sequence (Q5T2W1 238-333, limits assumed, looked up): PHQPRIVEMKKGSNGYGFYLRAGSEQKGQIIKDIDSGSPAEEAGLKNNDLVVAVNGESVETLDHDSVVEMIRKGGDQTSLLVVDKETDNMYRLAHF

NHERF4_1, Q86UT5-2 = molecular target: NHERF4_1, Q86UT5-2
NHERF4_1, Q86UT5-2, sequence (Q86UT5 other isoform, or with tags, fused parts or gaps): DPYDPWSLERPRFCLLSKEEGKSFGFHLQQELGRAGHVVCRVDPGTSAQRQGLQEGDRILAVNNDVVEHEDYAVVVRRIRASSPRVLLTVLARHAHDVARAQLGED

NOS1, P29475 = molecular target: NOS1, P29475
NOS1, P29475, sequence (P29475 9-101): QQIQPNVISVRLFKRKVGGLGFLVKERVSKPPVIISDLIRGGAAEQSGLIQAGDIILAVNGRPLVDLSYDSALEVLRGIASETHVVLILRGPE

PDZD7_3, Q9H5P4 = molecular target: T7, PDZD7_3, Q9H5P4
T7 sequence (Q9H5P4 857-944, limits assumed, looked up): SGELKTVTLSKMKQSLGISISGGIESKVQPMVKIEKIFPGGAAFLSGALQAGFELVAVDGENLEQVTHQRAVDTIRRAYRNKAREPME

PDZRN4_1, Q6ZMN7 = molecular target: PDZRN4_1, Q6ZMN7
PDZRN4_1, Q6ZMN7, sequence (Q6ZMN7 213-318): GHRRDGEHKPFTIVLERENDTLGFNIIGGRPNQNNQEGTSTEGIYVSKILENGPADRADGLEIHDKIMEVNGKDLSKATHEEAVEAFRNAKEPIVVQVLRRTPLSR

RADIL, Q96JH8 = molecular target: T8, RADIL, Q96JH8
T8 sequence (Q96JH8 971-1071, limits assumed, looked up): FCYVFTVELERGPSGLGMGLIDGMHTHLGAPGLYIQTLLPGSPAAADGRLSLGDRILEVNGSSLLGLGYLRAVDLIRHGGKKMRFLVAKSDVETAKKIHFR

SCRIB_2, Q14160 = molecular target: SCRIB_2, Q14160
SCRIB_2, Q14160, sequence (Q14160 857-960): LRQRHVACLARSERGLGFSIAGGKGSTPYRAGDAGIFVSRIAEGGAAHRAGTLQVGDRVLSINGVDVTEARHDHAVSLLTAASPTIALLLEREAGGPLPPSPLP

SNTB1, Q13884 = molecular target: T9, SNTB1, Q13884
T9 sequence (Q13884 107-205, limits assumed, looked up): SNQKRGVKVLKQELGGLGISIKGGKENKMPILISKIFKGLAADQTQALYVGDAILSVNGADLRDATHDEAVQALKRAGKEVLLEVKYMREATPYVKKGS

SNTG1, Q9NSN8 = molecular target: T10, SNTG1, Q9NSN8
T10 sequence (Q9NSN8 52-150, limits assumed, looked up): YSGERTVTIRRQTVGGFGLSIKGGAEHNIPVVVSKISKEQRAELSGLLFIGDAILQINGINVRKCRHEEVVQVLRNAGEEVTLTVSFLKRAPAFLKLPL

[1] = plain residues with an end cap or a label only (N-terminal biotin on a linker: ahx)
[2] = plain residues with an end cap or a label only (N-terminal biotin on a linker: ttds)

FRMPD3, Q5JV73, sequence (Q5JV73 12-100): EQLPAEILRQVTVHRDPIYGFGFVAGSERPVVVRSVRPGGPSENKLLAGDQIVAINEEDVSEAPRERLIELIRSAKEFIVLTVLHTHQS
DLG4_1, P78352, sequence (P78352 62-152): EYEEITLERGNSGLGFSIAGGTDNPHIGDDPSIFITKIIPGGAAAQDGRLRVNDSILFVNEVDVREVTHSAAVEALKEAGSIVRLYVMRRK

In the case of TEAKLTETNA [MYO18A, Q92614], the pKd (DLG4_1, P78352; [1]) is reported as “below the threshold”, the pKd (FRMPD3, Q5JV73; [1]) is reported as “below the threshold” and the pKd (GRIP1_3, Q9Y3R0; [1]) is reported as “below the threshold”. The pKd (GRIP2_7, Q9C0E4; [1]) was “below the threshold”, the pKd (HTRA3, P83110; [1]) was “below the threshold” and the pKd (IL16_1, Q14005; [1]) was “below the threshold”. The pKd (Inadl_2, Q8NI35; [1]) was “below the threshold”, the pKd (Inadl_8, Q8NI35; [1]) was “below the threshold” and the pKd (LDB3, O75112; [1]) was “below the threshold”. The pKd (LIMK2, P53671; [1]) was “below the threshold”, the pKd (LIN7C, Q9NUP9; [1]) was “below the threshold” and the pKd (MAGI1_1, Q96QZ7; [1]) was “below the threshold”. The pKd (MAGI2_2, Q86UL8; [1]) was “below the threshold”, the pKd (MAGI2_4, Q86UL8; [1]) was “below the threshold” and the pKd (MAGI2_6, Q86UL8; [1]) was “below the threshold”. The pKd (MAGI3_2, Q5TCQ9; [1]) was “below the threshold”, the pKd (MPP6, Q9NZW5; [1]) was “below the threshold” and the pKd (MPP7, Q5T2T1; [1]) was “below the threshold”. For the same binder, the pKd (NHERF3_3, Q5T2W1; [1]) was “below the threshold”, the pKd (NHERF4_1, Q86UT5-2; [1]) was “below the threshold” and the pKd (NOS1, P29475; [1]) was “below the threshold”. The pKd (PDZD7_3, Q9H5P4; [1]) was “below the threshold”, the pKd (PDZRN4_1, Q6ZMN7; [1]) was “below the threshold” and the pKd (RADIL, Q96JH8; [1]) was “below the threshold”. The pKd (SCRIB_2, Q14160; [1]) was “below the threshold”, the pKd (SNTB1, Q13884; [1]) was “below the threshold” and the pKd (SNTG1, Q9NSN8; [1]) was “below the threshold”.

For VLRLQSETSV [VANGL1, Q8TAA9], the pKd (DLG4_1, P78352; [2]) was 4.4, the pKd (FRMPD3, Q5JV73; [2]) was “below the threshold” and the pKd (GRIP1_3, Q9Y3R0; [2]) was “below the threshold”. The pKd (GRIP2_7, Q9C0E4; [2]) was “below the threshold”, the pKd (HTRA3, P83110; [2]) was “below the threshold” and the pKd (IL16_1, Q14005; [2]) was 3.7. The pKd (Inadl_2, Q8NI35; [2]) was “below the threshold”, the pKd (Inadl_8, Q8NI35; [2]) was “below the threshold” and the pKd (LDB3, O75112; [2]) was “below the threshold”. The pKd (LIMK2, P53671; [2]) was “below the threshold”, the pKd (LIN7C, Q9NUP9; [2]) was 3.94 and the pKd (MAGI1_1, Q96QZ7; [2]) was “below the threshold”. The pKd (MAGI2_2, Q86UL8; [2]) was 4.47, the pKd (MAGI2_4, Q86UL8; [2]) was 4.42 and the pKd (MAGI2_6, Q86UL8; [2]) was 4.05. The pKd (MAGI3_2, Q5TCQ9; [2]) was 5.14, the pKd (MPP6, Q9NZW5; [2]) was “below the threshold” and the pKd (MPP7, Q5T2T1; [2]) was “below the threshold”. For the same binder, the pKd (NHERF3_3, Q5T2W1; [2]) was “below the threshold”, the pKd (NHERF4_1, Q86UT5-2; [2]) was “below the threshold” and the pKd (NOS1, P29475; [2]) was 3.75. For the same binder, the pKd (PDZD7_3, Q9H5P4; [2]) was “below the threshold”, the pKd (PDZRN4_1, Q6ZMN7; [2]) was 4.46 and the pKd (RADIL, Q96JH8; [2]) was “below the threshold”. The pKd (SCRIB_2, Q14160; [2]) was 4.72, the pKd (SNTB1, Q13884; [2]) was 4.57 and the pKd (SNTG1, Q9NSN8; [2]) was 4.67.

For QSARYRDTEL [TJP2, Q9UDY2], the pKd (DLG4_1, P78352; [2]) was 3.52, the pKd (FRMPD3, Q5JV73; [2]) was “below the threshold” and the pKd (GRIP1_3, Q9Y3R0; [2]) was “below the threshold”. The pKd (GRIP2_7, Q9C0E4; [2]) was 3.49, the pKd (HTRA3, P83110; [2]) was 3.54 and the pKd (IL16_1, Q14005; [2]) was “below the threshold”. For the same binder, the pKd (Inadl_2, Q8NI35; [2]) was “below the threshold”, the pKd (Inadl_8, Q8NI35; [2]) was “below the threshold” and the pKd (LDB3, O75112; [2]) was “below the threshold”. For the same binder, the pKd (LIMK2, P53671; [2]) was “below the threshold”, the pKd (LIN7C, Q9NUP9; [2]) was “below the threshold” and the pKd (MAGI1_1, Q96QZ7; [2]) was 3.55. For the same binder, the pKd (MAGI2_2, Q86UL8; [2]) was “below the threshold”, the pKd (MAGI2_4, Q86UL8; [2]) was 3.74 and the pKd (MAGI2_6, Q86UL8; [2]) was 4.36. For the same binder, the pKd (MAGI3_2, Q5TCQ9; [2]) was “below the threshold”, the pKd (MPP6, Q9NZW5; [2]) was “below the threshold” and the pKd (MPP7, Q5T2T1; [2]) was “below the threshold”. The pKd (NHERF3_3, Q5T2W1; [2]) was “below the threshold”, the pKd (NHERF4_1, Q86UT5-2; [2]) was 3.73 and the pKd (NOS1, P29475; [2]) was 3.75. For the same binder, the pKd (PDZD7_3, Q9H5P4; [2]) was 3.69, the pKd (PDZRN4_1, Q6ZMN7; [2]) was 4.41 and the pKd (RADIL, Q96JH8; [2]) was “below the threshold”. It also gave a pKd (SCRIB_2, Q14160; [2]) of 3.9, a pKd (SNTB1, Q13884; [2]) of 3.86 and a pKd (SNTG1, Q9NSN8; [2]) of 3.73.

In the case of GQDSREETQL [KCNT2, Q6UVM3], the pKd (DLG4_1, P78352; [2]) is reported as “below the threshold”, the pKd (FRMPD3, Q5JV73; [2]) is reported as “below the threshold” and the pKd (GRIP1_3, Q9Y3R0; [2]) is reported as “below the threshold”. For the same binder, the pKd (GRIP2_7, Q9C0E4; [2]) was “below the threshold”, the pKd (HTRA3, P83110; [2]) was “below the threshold” and the pKd (IL16_1, Q14005; [2]) was “below the threshold”. For the same binder, the pKd (Inadl_2, Q8NI35; [2]) was “below the threshold”, the pKd (Inadl_8, Q8NI35; [2]) was “below the threshold” and the pKd (LDB3, O75112; [2]) was “below the threshold”. For the same binder, the pKd (LIMK2, P53671; [2]) was “below the threshold”, the pKd (LIN7C, Q9NUP9; [2]) was “below the threshold” and the pKd (MAGI1_1, Q96QZ7; [2]) was “below the threshold”. For the same binder, the pKd (MAGI2_2, Q86UL8; [2]) was “below the threshold”, the pKd (MAGI2_4, Q86UL8; [2]) was “below the threshold” and the pKd (MAGI2_6, Q86UL8; [2]) was “below the threshold”. For the same binder, the pKd (MAGI3_2, Q5TCQ9; [2]) was 3.91, the pKd (MPP6, Q9NZW5; [2]) was “below the threshold” and the pKd (MPP7, Q5T2T1; [2]) was “below the threshold”. For the same binder, the pKd (NHERF3_3, Q5T2W1; [2]) was “below the threshold”, the pKd (NHERF4_1, Q86UT5-2; [2]) was 4.06 and the pKd (NOS1, P29475; [2]) was 4.05. For the same binder, the pKd (PDZD7_3, Q9H5P4; [2]) was 4.47, the pKd (PDZRN4_1, Q6ZMN7; [2]) was 4.97 and the pKd (RADIL, Q96JH8; [2]) was “below the threshold”. For the same binder, the pKd (SCRIB_2, Q14160; [2]) was 3.83, the pKd (SNTB1, Q13884; [2]) was 4.49 and the pKd (SNTG1, Q9NSN8; [2]) was 3.73.
